Data reported in article PMC10786891, “Massively parallel profiling of RNA-targeting CRISPR-Cas13d”.

Target: T1, EsCas13d, nuclease-dead (Eubacterium siraeum, UniProt B0MS50, R295A;H300A;R849A;H854A)
T1 sequence: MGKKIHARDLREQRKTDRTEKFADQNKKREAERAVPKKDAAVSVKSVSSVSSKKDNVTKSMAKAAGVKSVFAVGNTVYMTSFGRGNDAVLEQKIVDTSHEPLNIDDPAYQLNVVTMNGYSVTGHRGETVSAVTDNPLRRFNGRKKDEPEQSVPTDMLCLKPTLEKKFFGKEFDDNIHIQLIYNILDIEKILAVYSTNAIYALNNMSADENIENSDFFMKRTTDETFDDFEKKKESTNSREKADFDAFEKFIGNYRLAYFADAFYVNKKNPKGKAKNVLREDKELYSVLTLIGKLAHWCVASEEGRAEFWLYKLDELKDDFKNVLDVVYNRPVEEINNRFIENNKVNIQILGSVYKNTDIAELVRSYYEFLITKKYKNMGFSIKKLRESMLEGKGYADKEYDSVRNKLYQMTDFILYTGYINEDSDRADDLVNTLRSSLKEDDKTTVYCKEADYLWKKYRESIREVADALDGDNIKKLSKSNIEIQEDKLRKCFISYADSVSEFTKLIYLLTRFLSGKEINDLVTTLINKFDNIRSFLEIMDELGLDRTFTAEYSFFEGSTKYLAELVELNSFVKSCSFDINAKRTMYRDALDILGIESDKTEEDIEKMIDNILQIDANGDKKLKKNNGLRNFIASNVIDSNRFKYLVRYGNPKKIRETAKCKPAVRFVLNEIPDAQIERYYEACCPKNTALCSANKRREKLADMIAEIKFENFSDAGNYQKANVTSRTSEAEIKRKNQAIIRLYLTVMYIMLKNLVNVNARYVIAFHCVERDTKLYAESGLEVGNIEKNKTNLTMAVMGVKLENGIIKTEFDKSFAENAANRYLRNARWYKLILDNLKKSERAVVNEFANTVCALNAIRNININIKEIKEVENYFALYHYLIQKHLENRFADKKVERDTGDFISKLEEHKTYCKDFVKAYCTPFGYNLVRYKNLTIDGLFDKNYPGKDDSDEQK
Assay: crRNA (strand 1, pre-loaded); Mg2+; 40 mM Tris-HCl pH 7.5, 150 mM NaCl, 6 mM MgCl2, 1 mM DTT, 0.1% Tween-20, 0.2 mg/ml BSA; 25 C; 10 min per concentration, then washed
Details: tags: His6-TwinStrep-SUMO cleaved; N-terminal SNAP kept (SNAP-Surface 488); label: 3' end held by stalled T7 RNA polymerase

B1: target 1 G12U,A16U (mixed)
RNA 1: CACCCGUGCAAAAAUGCAGGGGUCUAAAACUGAGCGGAUAACCUCUCUAUGG
RNA 2: GGGAAUGGAUCCACAUCUACGAAUUCGUACCAUAGUGAGUUUAUCCGCUCACCGAGAUCGGAAGAGCACACGU
Q: Which Kd does the source give for B1 here?
A: 79 ± 18 nM

B2: target 1 C6G,A9G (mixed)
RNA 1: CACCCGUGCAAAAAUGCAGGGGUCUAAAACUGAGCGGAUAACCUCUCUAUGG
RNA 2: GGGAAUGGAUCCACAUCUACGAAUUCGUACCAUAGAGAGGUUGUCGGCUCACCGAGAUCGGAAGAGCACACGU
Q: For B2, which Kd is on record?
A: 10.6 ± 0.9 nM

B3: target 1 U8G,A20C (mixed)
RNA 1: CACCCGUGCAAAAAUGCAGGGGUCUAAAACUGAGCGGAUAACCUCUCUAUGG
RNA 2: GGGAAUGGAUCCACAUCUACGAAUUCGUACCCUAGAGAGGUUAGCCGCUCACCGAGAUCGGAAGAGCACACGU
Q: With B3 as the binder, how does the Kd read?
A: 91 ± 34 nM

B4: target 1 del2,del4 (mixed)
RNA 1: CACCCGUGCAAAAAUGCAGGGGUCUAAAACUGAGCGGAUAACCUCUCUAUGG
RNA 2: GGGAAUGGAUCCACAUCUACGAAUUCGUACCAUAGAGAGGUUAUCCGUACCGAGAUCGGAAGAGCACACGU
Q: B4 was tested. Which Kd did it give?
A: 42 ± 10 nM

B5: target 1 insU 3' of 7,insG 3' of 3 (mixed)
RNA 1: CACCCGUGCAAAAAUGCAGGGGUCUAAAACUGAGCGGAUAACCUCUCUAUGG
RNA 2: GGGAAUGGAUCCACAUCUACGAAUUCGUACCAUAGAGAGGUUAUCUCGCUGCACCGAGAUCGGAAGAGCACACGU
Q: For B5, which Kd is on record?
A: 5.45 ± 0.31 nM

B6: target 1 U11C (mixed)
RNA 1: CACCCGUGCAAAAAUGCAGGGGUCUAAAACUGAGCGGAUAACCUCUCUAUGG
RNA 2: GGGAAUGGAUCCACAUCUACGAAUUCGUACCAUAGAGAGGCUAUCCGCUCACCGAGAUCGGAAGAGCACACGU
Q: For B6, which Kd is on record?
A: 8.9 ± 0.6 nM

B7: target 1 insG 3' of 19,insG 3' of 8 (mixed)
RNA 1: CACCCGUGCAAAAAUGCAGGGGUCUAAAACUGAGCGGAUAACCUCUCUAUGG
RNA 2: GGGAAUGGAUCCACAUCUACGAAUUCGUACCAUGAGAGAGGUUAUGCCGCUCACCGAGAUCGGAAGAGCACACGU
Q: With B7 as the binder, how does the Kd read?
A: 58 ± 6 nM

B8: target 1 insC 3' of 10,insA 3' of 8 (mixed)
RNA 1: CACCCGUGCAAAAAUGCAGGGGUCUAAAACUGAGCGGAUAACCUCUCUAUGG
RNA 2: GGGAAUGGAUCCACAUCUACGAAUUCGUACCAUAGAGAGGUUCAUACCGCUCACCGAGAUCGGAAGAGCACACGU
Q: How did the Kd turn out when B8 was run?
A: 18.8 ± 0.8 nM

B9: target 1 insA 3' of 11,insU 3' of 6 (mixed)
RNA 1: CACCCGUGCAAAAAUGCAGGGGUCUAAAACUGAGCGGAUAACCUCUCUAUGG
RNA 2: GGGAAUGGAUCCACAUCUACGAAUUCGUACCAUAGAGAGGUAUAUCCUGCUCACCGAGAUCGGAAGAGCACACGU
Q: How did the Kd turn out when B9 was run?
A: 18.2 ± 0.7 nM

B10: target 1 insU 3' of 21,insG 3' of 8 (mixed)
RNA 1: CACCCGUGCAAAAAUGCAGGGGUCUAAAACUGAGCGGAUAACCUCUCUAUGG
RNA 2: GGGAAUGGAUCCACAUCUACGAAUUCGUACCUAUAGAGAGGUUAUGCCGCUCACCGAGAUCGGAAGAGCACACGU
Q: Which Kd does the source give for B10 here?
A: 34.9 ± 3 nM

B11: target 1 C4U,A9C (mixed)
RNA 1: CACCCGUGCAAAAAUGCAGGGGUCUAAAACUGAGCGGAUAACCUCUCUAUGG
RNA 2: GGGAAUGGAUCCACAUCUACGAAUUCGUACCAUAGAGAGGUUCUCCGUUCACCGAGAUCGGAAGAGCACACGU
Q: With B11 as the binder, how does the Kd read?
A: 26 ± 4 nM

B12: target 1 U8C,A9U (mixed)
RNA 1: CACCCGUGCAAAAAUGCAGGGGUCUAAAACUGAGCGGAUAACCUCUCUAUGG
RNA 2: GGGAAUGGAUCCACAUCUACGAAUUCGUACCAUAGAGAGGUUUCCCGCUCACCGAGAUCGGAAGAGCACACGU
Q: Which Kd does the source give for B12 here?
A: 20.5 ± 0.8 nM

B13: target 1 insA 3' of 22,insC 3' of 13 (mixed)
RNA 1: CACCCGUGCAAAAAUGCAGGGGUCUAAAACUGAGCGGAUAACCUCUCUAUGG
RNA 2: GGGAAUGGAUCCACAUCUACGAAUUCGUACACAUAGAGAGCGUUAUCCGCUCACCGAGAUCGGAAGAGCACACGU
Q: With B13 as the binder, how does the Kd read?
A: 22 ± 1.3 nM

B14: target 1 A1U,U3A (mixed)
RNA 1: CACCCGUGCAAAAAUGCAGGGGUCUAAAACUGAGCGGAUAACCUCUCUAUGG
RNA 2: GGGAAUGGAUCCACAUCUACGAAUUCGUACCAUAGAGAGGUUAUCCGCACUCCGAGAUCGGAAGAGCACACGU
Q: B14 was tested. Which Kd did it give?
A: 7.2 ± 0.6 nM

B15: target 1 A1C,U11C (mixed)
RNA 1: CACCCGUGCAAAAAUGCAGGGGUCUAAAACUGAGCGGAUAACCUCUCUAUGG
RNA 2: GGGAAUGGAUCCACAUCUACGAAUUCGUACCAUAGAGAGGCUAUCCGCUCCCCGAGAUCGGAAGAGCACACGU
Q: For B15, which Kd is on record?
A: 22 ± 4 nM

B16: target 1 C7U,G15A (mixed)
RNA 1: CACCCGUGCAAAAAUGCAGGGGUCUAAAACUGAGCGGAUAACCUCUCUAUGG
RNA 2: GGGAAUGGAUCCACAUCUACGAAUUCGUACCAUAGAAAGGUUAUUCGCUCACCGAGAUCGGAAGAGCACACGU
Q: How did the Kd turn out when B16 was run?
A: 9.8 ± 0.6 nM

B17: target 1 U8G,G13A (mixed)
RNA 1: CACCCGUGCAAAAAUGCAGGGGUCUAAAACUGAGCGGAUAACCUCUCUAUGG
RNA 2: GGGAAUGGAUCCACAUCUACGAAUUCGUACCAUAGAGAAGUUAGCCGCUCACCGAGAUCGGAAGAGCACACGU
Q: Which Kd does the source give for B17 here?
A: 12.6 ± 0.9 nM

B18: target 1 insG 3' of 16,insU 3' of 1 (mixed)
RNA 1: CACCCGUGCAAAAAUGCAGGGGUCUAAAACUGAGCGGAUAACCUCUCUAUGG
RNA 2: GGGAAUGGAUCCACAUCUACGAAUUCGUACCAUAGAGGAGGUUAUCCGCUCAUCCGAGAUCGGAAGAGCACACGU
Q: B18 was tested. Which Kd did it give?
A: 16 ± 1.3 nM

B19: target 1 insU 3' of 15,insG 3' of 8 (mixed)
RNA 1: CACCCGUGCAAAAAUGCAGGGGUCUAAAACUGAGCGGAUAACCUCUCUAUGG
RNA 2: GGGAAUGGAUCCACAUCUACGAAUUCGUACCAUAGAGUAGGUUAUGCCGCUCACCGAGAUCGGAAGAGCACACGU
Q: Which Kd does the source give for B19 here?
A: 18.3 ± 1.7 nM

B20: target 1 C4G,A18G (mixed)
RNA 1: CACCCGUGCAAAAAUGCAGGGGUCUAAAACUGAGCGGAUAACCUCUCUAUGG
RNA 2: GGGAAUGGAUCCACAUCUACGAAUUCGUACCAUGGAGAGGUUAUCCGGUCACCGAGAUCGGAAGAGCACACGU
Q: For B20, which Kd is on record?
A: 36 ± 12 nM

B21: target 1 C22U (mixed)
RNA 1: CACCCGUGCAAAAAUGCAGGGGUCUAAAACUGAGCGGAUAACCUCUCUAUGG
RNA 2: GGGAAUGGAUCCACAUCUACGAAUUCGUAUCAUAGAGAGGUUAUCCGCUCACCGAGAUCGGAAGAGCACACGU
Q: B21 was tested. Which Kd did it give?
A: 16.6 ± 1.1 nM

B22: target 1 insG 3' of 8,insA 3' of 4 (mixed)
RNA 1: CACCCGUGCAAAAAUGCAGGGGUCUAAAACUGAGCGGAUAACCUCUCUAUGG
RNA 2: GGGAAUGGAUCCACAUCUACGAAUUCGUACCAUAGAGAGGUUAUGCCGCAUCACCGAGAUCGGAAGAGCACACGU
Q: With B22 as the binder, how does the Kd read?
A: 12 ± 0.7 nM

B23: target 1 A1C,U3A (mixed)
RNA 1: CACCCGUGCAAAAAUGCAGGGGUCUAAAACUGAGCGGAUAACCUCUCUAUGG
RNA 2: GGGAAUGGAUCCACAUCUACGAAUUCGUACCAUAGAGAGGUUAUCCGCACCCCGAGAUCGGAAGAGCACACGU
Q: Which Kd does the source give for B23 here?
A: 37 ± 7 nM

B24: target 1 U3G,G12A (mixed)
RNA 1: CACCCGUGCAAAAAUGCAGGGGUCUAAAACUGAGCGGAUAACCUCUCUAUGG
RNA 2: GGGAAUGGAUCCACAUCUACGAAUUCGUACCAUAGAGAGAUUAUCCGCGCACCGAGAUCGGAAGAGCACACGU
Q: With B24 as the binder, how does the Kd read?
A: 4 ± 0.5 nM

B25: target 1 del1,del4 (mixed)
RNA 1: CACCCGUGCAAAAAUGCAGGGGUCUAAAACUGAGCGGAUAACCUCUCUAUGG
RNA 2: GGGAAUGGAUCCACAUCUACGAAUUCGUACCAUAGAGAGGUUAUCCGUCCCGAGAUCGGAAGAGCACACGU
Q: For B25, which Kd is on record?
A: 42 ± 8 nM

B26: target 1 A1U,U3C (mixed)
RNA 1: CACCCGUGCAAAAAUGCAGGGGUCUAAAACUGAGCGGAUAACCUCUCUAUGG
RNA 2: GGGAAUGGAUCCACAUCUACGAAUUCGUACCAUAGAGAGGUUAUCCGCCCUCCGAGAUCGGAAGAGCACACGU
Q: Which Kd does the source give for B26 here?
A: 20.9 ± 1.9 nM

B27: target 1 U3A (mixed)
RNA 1: CACCCGUGCAAAAAUGCAGGGGUCUAAAACUGAGCGGAUAACCUCUCUAUGG
RNA 2: GGGAAUGGAUCCACAUCUACGAAUUCGUACCAUAGAGAGGUUAUCCGCACACCGAGAUCGGAAGAGCACACGU
Q: With B27 as the binder, how does the Kd read?
A: 15 ± 1.3 nM

B28: target 1 del2,del17 (mixed)
RNA 1: CACCCGUGCAAAAAUGCAGGGGUCUAAAACUGAGCGGAUAACCUCUCUAUGG
RNA 2: GGGAAUGGAUCCACAUCUACGAAUUCGUACCAUAAGAGGUUAUCCGCUACCGAGAUCGGAAGAGCACACGU
Q: Which Kd does the source give for B28 here?
A: ~70 nM
